In PMC12891897, “Blocking TRIM47-mediated HNF4α degradation suppresses hepatocellular carcinoma progression” (Acta Pharmaceutica Sinica. B, 2025):

What follows are substances tested against V5-tagged HNF4α (hepatocyte nuclear factor 4alpha), full length (amino acids 1–474), P41235-1 (assay: Co-IP (IP-Flag) and Western blotting, V5 band quantified). Conditions: HEK293T cells, transfected for 48 h; parent: 1.

| Substance | ratio to parent |
| --- | --- |
| Flag-tagged TRIM47 (tripartite motif 47), full length (amino acids 1–638) (from UniProt Q96LD4-1) K600A | 0.83 Fold |
| Flag-tagged TRIM47 (tripartite motif 47), full length (amino acids 1–638) (from UniProt Q96LD4-1) K534A | 0.79 Fold |
| Flag-tagged TRIM47 (tripartite motif 47), full length (amino acids 1–638) (from UniProt Q96LD4-1) K534A; K600A | 0.49 Fold |

What follows are substances tested against Flag-tagged TRIM47 (tripartite motif 47), full length (amino acids 1–638), Q96LD4-1 in the same assay as above. Conditions: HEK293T cells, co-transfected for 48 h; parent: 1.
Chain of Flag-tagged TRIM47 (tripartite motif 47), full length (amino acids 1–638), Q96LD4-1 (Q96LD4 whole entry, the tested form may be a part): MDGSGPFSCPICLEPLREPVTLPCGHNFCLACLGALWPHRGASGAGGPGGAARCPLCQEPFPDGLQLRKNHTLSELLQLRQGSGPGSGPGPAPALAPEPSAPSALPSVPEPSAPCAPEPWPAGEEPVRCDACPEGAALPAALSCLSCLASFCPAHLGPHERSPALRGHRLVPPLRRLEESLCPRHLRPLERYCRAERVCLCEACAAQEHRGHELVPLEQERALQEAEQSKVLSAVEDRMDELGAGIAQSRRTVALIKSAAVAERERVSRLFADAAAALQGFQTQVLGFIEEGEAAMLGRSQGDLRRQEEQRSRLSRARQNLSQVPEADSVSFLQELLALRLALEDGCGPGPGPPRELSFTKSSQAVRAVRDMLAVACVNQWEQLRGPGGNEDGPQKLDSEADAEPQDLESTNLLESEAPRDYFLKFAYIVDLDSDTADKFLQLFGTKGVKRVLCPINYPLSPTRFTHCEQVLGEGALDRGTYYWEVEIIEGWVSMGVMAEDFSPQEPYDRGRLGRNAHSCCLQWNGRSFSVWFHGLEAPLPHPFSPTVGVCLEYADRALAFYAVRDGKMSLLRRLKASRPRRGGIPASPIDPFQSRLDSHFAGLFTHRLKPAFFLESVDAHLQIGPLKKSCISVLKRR

| Substance | ratio to parent |
| --- | --- |
| V5-tagged HNF4α (hepatocyte nuclear factor 4alpha), full length (amino acids 1–474) (from UniProt P41235-1) K342A | 0.56 Fold |
| V5-tagged HNF4α (hepatocyte nuclear factor 4alpha), full length (amino acids 1–474) (from UniProt P41235-1) E353A | 0.38 Fold |
| V5-tagged HNF4α (hepatocyte nuclear factor 4alpha), full length (amino acids 1–474) (from UniProt P41235-1) K342A; W349A; E353A | 0.23 Fold |
| V5-tagged HNF4α (hepatocyte nuclear factor 4alpha), full length (amino acids 1–474) (from UniProt P41235-1) W349A | 0.49 Fold |
